The target in this test is T1, human EphA2-Fc (human, UniProt P29317 25-534, limits assumed).
T1 construct: Coated on Azlactone beads and titrated in solution in KinExA; not shown: Fc part
Nature of the test: KinExA, EphA2-Fc beads, solution equilibrium titration. The protocol:
Protein concentrations were calculated by the BCA method. […] Coated beads were then separated from unreacted EphA2-Fc using a gentle pulse spin and blocked for approximately 2 h at room temperature with 1 M Tris, pH 8.0, bovine serum albumin 10 mg/mL. Beads were then resuspended in 30 mL of run buffer (PBS, pH 7.4-0.02% NaN₃) and packed into a column. […] The amount of free IgG in the samples was derived from the fluorescence signal obtained after the passing of Cy5-labeled goat anti-human IgG F(ab′)₂ (typically 0.5-2 μg/ml; Jackson ImmunoResearch Laboratories, West Grove, Pa.) through the column.

Among the data in patent publication US20110077383A1 (AstraZeneca / MedImmune, published 2011) are Kd values, retold here.

T1 sequence (P29317 25-534 limits assumed): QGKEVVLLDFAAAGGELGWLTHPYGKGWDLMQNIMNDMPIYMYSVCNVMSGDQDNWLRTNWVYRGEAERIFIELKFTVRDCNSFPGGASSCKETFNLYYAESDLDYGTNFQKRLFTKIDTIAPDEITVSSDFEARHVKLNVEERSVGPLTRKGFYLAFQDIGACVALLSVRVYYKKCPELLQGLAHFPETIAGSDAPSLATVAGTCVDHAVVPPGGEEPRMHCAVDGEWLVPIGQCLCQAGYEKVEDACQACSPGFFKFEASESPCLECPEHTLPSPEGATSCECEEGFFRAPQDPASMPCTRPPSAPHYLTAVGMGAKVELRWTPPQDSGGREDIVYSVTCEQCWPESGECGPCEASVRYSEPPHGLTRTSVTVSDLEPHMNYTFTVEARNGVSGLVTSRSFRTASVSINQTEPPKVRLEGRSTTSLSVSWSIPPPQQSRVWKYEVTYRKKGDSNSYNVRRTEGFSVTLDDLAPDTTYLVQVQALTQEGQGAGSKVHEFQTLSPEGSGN

B1: mAb 12G3H11, human anti-human EphA2 monoclonal antibody, wild type hinge (antibody, human IgG1, V domains shown)
VH: QMQLVQSGPEVKKPGTSVKVSCKASGFTFDDYSMNWVRQARGQRLEWIGFIRNKANDYTTEYADSVKGRVTITRDMSTSTAYMELSSLRSEDTAVYYCARYPRHHAMDSWGQGTSVTVSS
VL: DIQMTQSPSSLSASVGDRVTITCRASQSISNNLHWYQQKPGKAPKLLIKYAFQSISGVPSRFSGSGSGTDFTFTISSLQPEDFATYYCQQANSWPLTFGGGTKVEIK
notes: Human IgG1/kappa expressed in HEK 293 cells; also called Wild type (12G3H11); 12G3H11 “wild type”; not shown: human kappa light chain constant region
B1 came in with a Kd of 1.1 pM. This counts as picomolar.

B2: 12G3H11 Fc variant 5-GGG Insert Low (antibody, IgG1)
heavy (part 1 of 2): QMQLVQSGPEVKKPGTSVKVSCKASGFTFDDYSMNWVRQARGQRLEWIGFIRNKANDYTTEYADSVKGRVTITRDMSTSTAYMELSSLRSEDTAVYYCARYPRHHAMDSWGQGTSVTVSS
heavy (part 2 of 2): not shown
light: DIQMTQSPSSLSASVGDRVTITCRASQSISNNLHWYQQKPGKAPKLLIKYAFQSISGVPSRFSGSGSGTDFTFTISSLQPEDFATYYCQQANSWPLTFGGGTKVEIK
notes: domain: lower hinge, CH2, CH3; 12G3H11 IgG1/kappa; GGG inserted between P227 and P228; not shown: human IgG1 heavy chain constant region, CH1 up to EU 215; human IgG1 heavy chain constant region from EU 231 (lower hinge, CH2, CH3); human kappa light chain constant region
In turn, B2 displayed a Kd of 0.8 pM.

B3: 12G3H11 Fc variant 14-T to C Middle (antibody, IgG1)
heavy (part 1 of 2): QMQLVQSGPEVKKPGTSVKVSCKASGFTFDDYSMNWVRQARGQRLEWIGFIRNKANDYTTEYADSVKGRVTITRDMSTSTAYMELSSLRSEDTAVYYCARYPRHHAMDSWGQGTSVTVSS
heavy (part 2 of 2): not shown
light: DIQMTQSPSSLSASVGDRVTITCRASQSISNNLHWYQQKPGKAPKLLIKYAFQSISGVPSRFSGSGSGTDFTFTISSLQPEDFATYYCQQANSWPLTFGGGTKVEIK
notes: domain: lower hinge, CH2, CH3; 12G3H11 IgG1/kappa; T223C; not shown: human IgG1 heavy chain constant region, CH1 up to EU 215; human IgG1 heavy chain constant region from EU 231 (lower hinge, CH2, CH3); human kappa light chain constant region
As to B3, the Kd is 7.2 pM. Against the preceding molecule, the Kd is about 9-fold higher.

B4: 12G3H11 Fc variant 13-2 AA Delete Mid (antibody, IgG1)
heavy (part 1 of 2): QMQLVQSGPEVKKPGTSVKVSCKASGFTFDDYSMNWVRQARGQRLEWIGFIRNKANDYTTEYADSVKGRVTITRDMSTSTAYMELSSLRSEDTAVYYCARYPRHHAMDSWGQGTSVTVSS
heavy (part 2 of 2): not shown
light: DIQMTQSPSSLSASVGDRVTITCRASQSISNNLHWYQQKPGKAPKLLIKYAFQSISGVPSRFSGSGSGTDFTFTISSLQPEDFATYYCQQANSWPLTFGGGTKVEIK
notes: domain: lower hinge, CH2, CH3; 12G3H11 IgG1/kappa; T223 and H224 deleted; not shown: human IgG1 heavy chain constant region, CH1 up to EU 215; human IgG1 heavy chain constant region from EU 231 (lower hinge, CH2, CH3); human kappa light chain constant region
Take B4: the Kd was 1.7 pM.

B5: 12G3H11 Fc variant 11-4 AA Delete (antibody, IgG1)
heavy (part 1 of 2): QMQLVQSGPEVKKPGTSVKVSCKASGFTFDDYSMNWVRQARGQRLEWIGFIRNKANDYTTEYADSVKGRVTITRDMSTSTAYMELSSLRSEDTAVYYCARYPRHHAMDSWGQGTSVTVSS
heavy (part 2 of 2): not shown
light: DIQMTQSPSSLSASVGDRVTITCRASQSISNNLHWYQQKPGKAPKLLIKYAFQSISGVPSRFSGSGSGTDFTFTISSLQPEDFATYYCQQANSWPLTFGGGTKVEIK
notes: domain: lower hinge, CH2, CH3; 12G3H11 IgG1/kappa; T223, H224, P227 and P228 deleted; not shown: human IgG1 heavy chain constant region, CH1 up to EU 215; human IgG1 heavy chain constant region from EU 231 (lower hinge, CH2, CH3); human kappa light chain constant region
For B5, the dissociation constant (Kd) was ≤ 1 pM.

B6: 12G3H11 Fc variant 18-EPKS to PPPP (antibody, IgG1)
heavy (part 1 of 2): QMQLVQSGPEVKKPGTSVKVSCKASGFTFDDYSMNWVRQARGQRLEWIGFIRNKANDYTTEYADSVKGRVTITRDMSTSTAYMELSSLRSEDTAVYYCARYPRHHAMDSWGQGTSVTVSS
heavy (part 2 of 2): not shown
light: DIQMTQSPSSLSASVGDRVTITCRASQSISNNLHWYQQKPGKAPKLLIKYAFQSISGVPSRFSGSGSGTDFTFTISSLQPEDFATYYCQQANSWPLTFGGGTKVEIK
notes: domain: lower hinge, CH2, CH3; 12G3H11 IgG1/kappa; EPKS replaced by PPPP; not shown: human IgG1 heavy chain constant region, CH1 up to EU 215; human IgG1 heavy chain constant region from EU 231 (lower hinge, CH2, CH3); human kappa light chain constant region
B6 had a Kd of 1.5 pM.

B7: 12G3H11 Fc variant 6-GGG Insert High (antibody, IgG1)
heavy (part 1 of 2): QMQLVQSGPEVKKPGTSVKVSCKASGFTFDDYSMNWVRQARGQRLEWIGFIRNKANDYTTEYADSVKGRVTITRDMSTSTAYMELSSLRSEDTAVYYCARYPRHHAMDSWGQGTSVTVSS
heavy (part 2 of 2): not shown
light: DIQMTQSPSSLSASVGDRVTITCRASQSISNNLHWYQQKPGKAPKLLIKYAFQSISGVPSRFSGSGSGTDFTFTISSLQPEDFATYYCQQANSWPLTFGGGTKVEIK
notes: domain: lower hinge, CH2, CH3; 12G3H11 IgG1/kappa; GGG inserted between D(Kabat 234) and K222; not shown: human IgG1 heavy chain constant region, CH1 up to EU 215; human IgG1 heavy chain constant region from EU 231 (lower hinge, CH2, CH3); human kappa light chain constant region
B7 showed a Kd of 2.7 pM. Against the preceding molecule, the Kd is about 1.8-fold higher.

As usually defined, the Kd is the equilibrium constant for the complex coming apart. Lower therefore signals a tighter complex.
